The results in this text go back to article PMC4017264 (Molecular Cell, 2014).

In assay [1] the target is T1, HOIP PUB domain (HOIP 1-184) (Homo sapiens, UniProt Q96EP0).
T1 construct: PUB domains from HOIP (aa 1–184, red); His6 (3C-cleavable, pOPINB) (N, cleaved yes); made in house; host or cells: E. coli Rosetta2 (DE3) pLacI
T1 sequence (Q96EP0 1-184): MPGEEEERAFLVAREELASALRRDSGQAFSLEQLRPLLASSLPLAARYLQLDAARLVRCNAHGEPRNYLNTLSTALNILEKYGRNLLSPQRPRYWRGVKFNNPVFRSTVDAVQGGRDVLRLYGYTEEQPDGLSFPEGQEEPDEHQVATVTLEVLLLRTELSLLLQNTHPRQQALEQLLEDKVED
The assay can be described thus: fluorescence polarization binding of FITC-Ahx peptides to HOIP PUB domain. On the procedure: Serially diluted PUB domains and HOIP variants were mixed with an equal volume of 100 nM FITC-Ahx-labeled peptides of OTULIN and p97. Fluorescence polarization was recorded on a PheraStar plate reader (BMG LABTECH) and fitted to a one-site binding model with GraphPad Prism 5.
Fluorescence polarization binding assays
10 µl of 100 nM FITC-Ahx peptides of either OTULIN (49-67) or p97 (797-806) were aliquoted into a 384-well low volume plate (Corning). Serial dilutions of HOIP PUB into FP assay buffer (20 mM Tris pH 7.4, 100 mM NaCl, 1 mM DTT) were prepared and 10 µl of this was aliquoted to FITC-Ahx peptide-containing wells. Fluorescence polarization was recorded on a PheraStar plate reader (BMG Labtech) using an optics module with $ex = 485 nm and $em = 520 nm. To derive binding constants (KD), polarization values were fitted to a one-site binding model using Graphpad Prism 5. […]
(In general: Fluorescence polarisation rises when a labelled molecule tumbles more slowly, as on binding a larger partner.)

The subject of the next assay is endogenous OTULIN. The assay can be described thus: coimmunoprecipitation of endogenous OTULIN with tagged HOIP/HOIL-1. The format is cell-based. The note with it: tagged HOIP/HOIL-1 constructs, HEK293T or U2OS/NOD2 cells, western blot. On the procedure: Transfected HEK293T or U2OS and NOD2 cells were lysed in the presence of protease and phosphatase inhibitors. Clarified lysates were incubated overnight with anti-V5 and anti-HA-agarose resin. […]
siOTULIN: […], siMM […]
Immunoprecipitation of HOIP-V5 and HA-OTULIN
HEK293T or U2OS/NOD2 cells were transfected as indicated. The cells were lysed in IP buffer buffer (25 mM HEPES pH 7.4, 150 mM KCl, 2 mM MgCl2, 1 mM EGTA, 0.5% (v/v) Triton X-100) supplemented with 5 mM NEM (Sigma-Aldrich), cOmplete protease inhibitor cocktail (Roche) and PhosSTOP
(Roche). After 30 minutes on ice, the lysates were cleared by centrifugation and incubated overnight at 4 °C with anti-V5-agarose resin or anti-HA-agarose resin. The beads were washed four times in ice-cold IP buffer and the precipitated material was eluted with 0.2 M glycine, pH 2.5. […]
In general terms: Immunoblotting shows a protein as a band on a membrane.

Residue numbers refer to the chain shown, from its start. In names and notes the source's numbering stands. Non-standard residues stand in square brackets, D forms with d. No end group written: not given here. *: point of attachment. FITC = O=C1OC2(c3ccc(O)cc3Oc3cc(O)ccc32)c2ccc(NC(=S)*)cc21; pY = N[C@@H](Cc1ccc(OP(=O)(O)O)cc1)C(=O)O; Ahx = NCCCCCC(=O)O

As to “Y56W: fluorescently labeled OTULIN peptide (aa 49–67) with point mutation Y56W ({FITC-Ahx}-AEHEEDMWRAADEIEKEKE)”, the “reduction of HOIP binding versus wild-type OTULIN peptide” value in assay [1] (OTULIN peptide point mutants) worked out at 100 fold.

“Y56A: fluorescently labeled OTULIN peptide (aa 49–67) with point mutation Y56A ({FITC-Ahx}-AEHEEDMARAADEIEKEKE; UniProt Q96BN8 49-67, looked up, variant Y56A)”: the “binding to HOIP PUB domain (in words)” value in assay [1] is reported as “abrogated binding”.

For “FITC-Ahx-OTULIN 49-63 pY56: Tyr56-phosphorylated FITC-Ahx-labeled OTULIN peptide (legend: 49–67) ({FITC-Ahx}-AEHEEDM[pY]RAADEIEKEKE)”, in assay [1], the “binding to HOIP PUB domain (in words)” value is recorded as “unable to bind HOIP”.

B1: HOIP: epitope-tagged HOIP, LUBAC E3 ligase component (protein, UniProt Q96EP0 1-1072, looked up)
E3 ubiquitin-protein ligase …: MPGEEEERAFLVAREELASALRRDSGQAFSLEQLRPLLASSLPLAARYLQLDAARLVRCNAHGEPRNYLNTLSTALNILEKYGRNLLSPQRPRYWRGVKFNNPVFRSTVDAVQGGRDVLRLYGYTEEQPDGLSFPEGQEEPDEHQVATVTLEVLLLRTELSLLLQNTHPRQQALEQLLEDKVEDDMLQLSEFDPLLREIAPGPLTTPSVPGSTPGPCFLCGSAPGTLHCPSCKQALCPACDHLFHGHPSRAHHLRQTLPGVLQGTHLSPSLPASAQPRPQSTSLLALGDSSLSSPNPASAHLPWHCAACAMLNEPWAVLCVACDRPRGCKGLGLGTEGPQGTGGLEPDLARGRWACQSCTFENEAAAVLCSICERPRLAQPPSLVVDSRDAGICLQPLQQGDALLASAQSQVWYCIHCTFCNSSPGWVCVMCNRTSSPIPAQHAPRPYASSLEKGPPKPGPPRRLSAPLPSSCGDPEKQRQDKMREEGLQLVSMIREGEAAGACPEEIFSALQYSGTEVPLQWLRSELPYVLEMVAELAGQQDPGLGAFSCQEARRAWLDRHGNLDEAVEECVRTRRRKVQELQSLGFGPEEGSLQALFQHGGDVSRALTELQRQRLEPFRQRLWDSGPEPTPSWDGPDKQSLVRRLLAVYALPSWGRAELALSLLQETPRNYELGDVVEAVRHSQDRAFLRRLLAQECAVCGWALPHNRMQALTSCECTICPDCFRQHFTIALKEKHITDMVCPACGRPDLTDDTQLLSYFSTLDIQLRESLEPDAYALFHKKLTEGVLMRDPKFLWCAQCSFGFIYEREQLEATCPQCHQTFCVRCKRQWEEQHRGRSCEDFQNWKRMNDPEYQAQGLAMYLQENGIDCPKCKFSYALARGGCMHFHCTQCRHQFCSGCYNAFYAKNKCPEPNCRVKKSLHGHHPRDCLFYLRDWTALRLQKLLQDNNVMFNTEPPAGARAVPGGGCRVIEQKEVPNGLRDEACGKETPAGYAGLCQAHYKEYLVSLINAHSLDPATLYEVEELETATERYLHVRPQPLAGEDPPAYQARLLQKLTEEVPLGQSIPRRRK
modifications: epitope tag
With B1, the “coimmunoprecipitation of endogenous OTULIN (in words)” value (from here on “coimmunoprecipitation”) is “copurified endogenous OTULIN” with endogenous OTULIN and “coprecipitated OTULIN” with endogenous OTULIN (listed as wild-type HOIP).

B2: Y82A: V5-tagged HOIP with point mutation Y82A in the PUB binding site (protein)
chain: B1 E3 ubiquitin-protein ligase … with Y82A
modifications: left off: V5, end not stated, kept
Turning to B2, the “coimmunoprecipitation” value in the assay on endogenous OTULIN is listed as “abrogated OTULIN binding”.

B3: K99E: V5-tagged HOIP with point mutation K99E in the PUB binding site (protein)
chain: B1 E3 ubiquitin-protein ligase … with K99E
modifications: left off: V5, end not stated, kept
For the molecule B3, the “coimmunoprecipitation” value in the assay with endogenous OTULIN is “decreased binding”.

B4: Y82F: V5-tagged HOIP with point mutation Y82F in the PUB binding site (protein, UniProt Q96EP0 1-1072, looked up, variant Y82F)
E3 ubiquitin-protein ligase …: B1 E3 ubiquitin-protein ligase … with Y82F
modifications: V5 tag
As to B4, the “coimmunoprecipitation” value in the assay on endogenous OTULIN is given as “decreased binding”.

B5: N102D: V5-tagged HOIP with point mutation N102D in the PUB binding site (protein, UniProt Q96EP0 1-1072, looked up, variant N102D)
E3 ubiquitin-protein ligase …: B1 E3 ubiquitin-protein ligase … with N102D
modifications: V5 tag
As to B5, the “coimmunoprecipitation” value in the assay with endogenous OTULIN was “abrogated OTULIN binding”.

B6: HOIL-1: epitope-tagged HOIL-1, LUBAC component (protein)
chain: MDEKTKKAEEMALSLTRAVAGGDEQVAMKCAIWLAEQRVPLSVQLKPEVSPTQDIRLWVSVEDAQMHTVTIWLTVRPDMTVASLKDMVFLDYGFPPVLQQWVIGQRLARDQETLHSHGVRQNGDSAYLYLLSARNTSLNPQELQRERQLRMLEDLGFKDLTLQPRGPLEPGPPKPGVPQEPGRGQPDAVPEPPPVGWQCPGCTFINKPTRPGCEMCCRARPEAYQVPASYQPDEEERARLAGEEEALRQYQQRKQQQQEGNYLQHVQLDQRSLVLNTEPAECPVCYSVLAPGEAVVLRECLHTFCRECLQGTIRNSQEAEVSCPFIDNTYSCSGKLLEREIKALLTPEDYQRFLDLGISIAENRSAFSYHCKTPDCKGWCFFEDDVNEFTCPVCFHVNCLLCKAIHEQMNCKEYQEDLALRAQNDVAARQTTEMLKVMLQQGEAMRCPQCQIVVQKKDGCDWIRCTVCHTEICWVTKGPRWGPGGPGDTSGGCRCRVNGIPCHPSCQNCH
As for B6, the “coimmunoprecipitation” value in the assay with endogenous OTULIN is listed as “OTULIN interacts with HOIP but not HOIL-1”.

B7: aa 1–436: HOIP construct aa 1–436, also including B box and NZF domains (protein, UniProt Q96EP0 1-436, looked up, fragment)
chain: MPGEEEERAFLVAREELASALRRDSGQAFSLEQLRPLLASSLPLAARYLQLDAARLVRCNAHGEPRNYLNTLSTALNILEKYGRNLLSPQRPRYWRGVKFNNPVFRSTVDAVQGGRDVLRLYGYTEEQPDGLSFPEGQEEPDEHQVATVTLEVLLLRTELSLLLQNTHPRQQALEQLLEDKVEDDMLQLSEFDPLLREIAPGPLTTPSVPGSTPGPCFLCGSAPGTLHCPSCKQALCPACDHLFHGHPSRAHHLRQTLPGVLQGTHLSPSLPASAQPRPQSTSLLALGDSSLSSPNPASAHLPWHCAACAMLNEPWAVLCVACDRPRGCKGLGLGTEGPQGTGGLEPDLARGRWACQSCTFENEAAAVLCSICERPRLAQPPSLVVDSRDAGICLQPLQQGDALLASAQSQVWYCIHCTFCNSSPGWVCVMCNRTS
In the case of B7, the “coimmunoprecipitation” value with endogenous OTULIN is listed as “OTULIN interaction was increased”.

B8: N-terminal 185 amino acids (aa) spanning the PUB domain of HOIP: HOIP truncation (protein, UniProt Q96EP0 1-185, looked up, fragment)
chain: MPGEEEERAFLVAREELASALRRDSGQAFSLEQLRPLLASSLPLAARYLQLDAARLVRCNAHGEPRNYLNTLSTALNILEKYGRNLLSPQRPRYWRGVKFNNPVFRSTVDAVQGGRDVLRLYGYTEEQPDGLSFPEGQEEPDEHQVATVTLEVLLLRTELSLLLQNTHPRQQALEQLLEDKVEDD
On to B8, for which, in the assay with endogenous OTULIN, the “coimmunoprecipitation” value was “sufficient to coimmunoprecipitate endogenous OTULIN”.
